# In patent US5750344A, “Method for selection of biologically active peptide sequences” (priority 1995, dated 1998):
# Biological target: T1, urokinase plasminogen activator receptor (uPAR) (Homo sapiens, UniProt Q03405)
# T1 construct: 10^6 Sf9 cells expressing full length uPAR ("fluPAR", day 2 post infection); expressed in transfected cells; host or cells: Sf9 insect cells (baculovirus-infected)
# Test: Binding of individual phage clones to Sf9 cells expressing fluPAR (% recovery)
# Conditions: phage clone displaying the peptide; Sf9 cells expressing full length uPAR (fluPAR)
# Procedure: (§1) 1.) 15mer phage (2.5×10^10) prepared as described above were selected by coincubation with 10^6 Sf9 cells expressing full length uPAR ("fluPAR", day 2 post infection) at room temperature for 60 minutes in Grace's medium with 2% nonfat milk. Binding phage were eluted with 6M urea (pH 2.2), the pH neutralized by adding 2M Tris-HCl, and assayed. The yield of binding phage was 0.0013% (3.3×10^5 pfu). The phage were amplified on solid agar plates as plaques, eluted with Tris-buffered saline, and precipitated with polyethylene glycol.
# (§2) 3.) The phage selected in round 2 were reselected on Sf9 cells expressing fluPAR (day 2 post-infection) as described for round 1 (2.8×10^10 phage on 10^6 Sf9 cells). The yield of binding phage from this round was 5.40% (1.5×10^9 pfu), indicating a substantial enrichment in binding phage. Phage from the urea eluate were cloned, and the DNA isolated and sequenced. Binding by individual phage clones was assayed against Sf9 cells expressing fluPAR, and Sf9 cells expressing substance P receptor (as a control).
# T1 sequence (Q03405 23-335, species assumed): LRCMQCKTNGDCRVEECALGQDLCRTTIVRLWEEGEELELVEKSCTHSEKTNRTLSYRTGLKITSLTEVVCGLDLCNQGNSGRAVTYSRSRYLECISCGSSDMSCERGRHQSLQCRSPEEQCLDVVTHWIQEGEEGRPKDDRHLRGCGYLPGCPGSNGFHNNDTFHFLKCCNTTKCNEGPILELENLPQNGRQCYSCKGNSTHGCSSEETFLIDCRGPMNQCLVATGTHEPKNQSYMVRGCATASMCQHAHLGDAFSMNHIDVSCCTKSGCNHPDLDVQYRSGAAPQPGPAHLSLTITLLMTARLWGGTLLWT
row,Sequence,% Recovery uPAR [%]
1,AECLNGGTAVSNKYFSNIHWCN (displayed on phage) [reference compound],6.8
2,AEMHRSLWEWYVPNQSA (displayed on phage),4.2
3,AEPALLNWSFFFNPGLH (displayed on phage),4.7
4,AEPLDLWSLYSLPPLAM (displayed on phage),6.0
5,AEPMPHSLNFSQYLWYT (displayed on phage),2.2
6,AESLPTLTSILWGKESV (displayed on phage),0.5
7,AESQTGTLNTLFWNTLR (displayed on phage),2.8
8,AESSLWRIFSPSALMMS (displayed on phage),3.5
9,AESSLWTRYAWPSMPSY (displayed on phage),12.1
10,AEWHPGLSFGSYLWSKT (displayed on phage),5.7

# Same assay, conditions: ratio of % recovery on uPAR Sf9 cells to % recovery on SPR Sf9 cells
row,Sequence,Specificity (uPAR/SPR)
1,AECLNGGTAVSNKYFSNIHWCN (displayed on phage) [reference compound],850
2,AEMHRSLWEWYVPNQSA (displayed on phage),105
3,AEPALLNWSFFFNPGLH (displayed on phage),47
4,AEPLDLWSLYSLPPLAM (displayed on phage),63
5,AEPMPHSLNFSQYLWYT (displayed on phage),28
6,AESLPTLTSILWGKESV (displayed on phage),23
7,AESQTGTLNTLFWNTLR (displayed on phage),350
8,AESSLWRIFSPSALMMS (displayed on phage),50
9,AESSLWTRYAWPSMPSY (displayed on phage),47
10,AEWHPGLSFGSYLWSKT (displayed on phage),168

# Biological target: T2, substance P receptor (Homo sapiens, UniProt P25103)
# T2 construct: expressed in transfected cells; host or cells: Sf9 insect cells
# Test: Binding of individual phage clones to Sf9 cells expressing substance P receptor (control)
# Conditions: phage clone displaying the peptide
# Procedure: as §1, §2
# T2 sequence (P25103 whole entry, species assumed): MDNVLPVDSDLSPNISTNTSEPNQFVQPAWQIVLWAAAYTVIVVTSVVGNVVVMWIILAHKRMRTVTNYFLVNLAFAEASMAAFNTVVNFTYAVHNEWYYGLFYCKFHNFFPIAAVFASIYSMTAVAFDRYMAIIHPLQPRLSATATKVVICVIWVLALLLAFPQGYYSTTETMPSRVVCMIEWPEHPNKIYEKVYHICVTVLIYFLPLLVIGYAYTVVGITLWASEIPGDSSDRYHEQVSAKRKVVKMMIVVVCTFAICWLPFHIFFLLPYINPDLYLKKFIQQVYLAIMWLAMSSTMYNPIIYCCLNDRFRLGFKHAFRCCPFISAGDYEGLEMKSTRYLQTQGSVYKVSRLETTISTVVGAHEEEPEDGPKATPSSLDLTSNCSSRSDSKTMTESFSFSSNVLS
row,Sequence,% Recovery SPR [%]
1,AECLNGGTAVSNKYFSNIHWCN (displayed on phage) [reference compound],0.008
2,AEMHRSLWEWYVPNQSA (displayed on phage),0.040
3,AEPALLNWSFFFNPGLH (displayed on phage),0.100
4,AEPLDLWSLYSLPPLAM (displayed on phage),0.095
5,AEPMPHSLNFSQYLWYT (displayed on phage),0.080
6,AESLPTLTSILWGKESV (displayed on phage),0.022
7,AESQTGTLNTLFWNTLR (displayed on phage),0.008
8,AESSLWRIFSPSALMMS (displayed on phage),0.070
9,AESSLWTRYAWPSMPSY (displayed on phage),0.260
10,AEWHPGLSFGSYLWSKT (displayed on phage),0.034
